The target in test [1] is extracellular domain of rat neurexin-1-β (rat-NX1β-1), residues 48-300 (rat) (UniProt Q63373). The experiment in a line: SPR, NX1β immobilised.
Test [2] has the same target. In words: SPR, NX1β immobilised; one value told for the four proteins.
Test [3] shares this target. In words: SPR, β-neurexin immobilised; 3 µM.
The target is the same in test [4]. In words: SPR, β-neurexin immobilised; 111 nM.
Test [5] shares this target. In words: SPR (BIAcore), NX1β immobilised.
The target is the same in test [6]. In words: SPR (BIAcore), NX1β immobilised; from ka and kd.
Test [7] shares this target. In words: SPR, NX1β immobilised; sialidase II treated against native protein.
For test [8] the target is unchanged. The experiment in a line: SPR, NX1β immobilised; treated against native protein, 500 nM.
Test [9] shares this target. The experiment in a line: SPR, NX1β immobilised; deglycosylated against native protein.
Test [10] has the same target. The experiment in a line: SPR (BIAcore), NX1β immobilised, NL1 62.5-2000 nM.
The target is the same in test [11]. The experiment in a line: SPR, NX1β immobilised; treated against native protein.

Regarding “N303A-NL1-638 (from UniProt Q62765 46-638) (receptor)”, the increase of NX1β binding activity after PNGase F digestion in test [1] was found to be 17%.
For “N343A-NL1-638 (from UniProt Q62765 46-638) (receptor)”, in test [2], the increase of NX1β binding activity after PNGase F digestion was found to be 229%.
Consider “R471C-NL3-639 (from UniProt Q62889 35-639) (receptor)”, for which the fold less β-neurexin binding than wild type in [3] stood at 50 fold.
Regarding “R473T-NL1-691 (from UniProt Q62765 46-691) (receptor)”, in [4], the fold less total binding than wild type amounted to 3 fold.
With “S549A-NL1-638 (from UniProt Q62765 46-638) (receptor)”, the increase of NX1β binding activity after PNGase F digestion in test [2] is 229%.
Take “T111A-NL1-638 (from UniProt Q62765 46-638) (receptor)”: in test [2], the increase of NX1β binding activity after PNGase F digestion came out at 229%.
Regarding “soluble truncated NL1 (recombinant, soluble entity; truncation not specified) (from UniProt Q62765 46-691) (receptor)”, in test [5], the koff stood at 0.015 s⁻¹ and the association rate constant (kon) amounted to 50000 M⁻¹ s⁻¹. Also, the Kd in test [6] stood at 300 nM.

B1: NL1-638 (soluble rat neuroligin-1 truncated by a stop codon at Ile-639, N-terminal FLAG) (receptor)
chain: DYKDDDDKLAAANSSIDLQKLDDVDPLVTTNFGKIRGIKKELNNEILGPVIQFLGVPYAAPPTGEHRFQPPEPPSPWSDIRNATQFAPVCPQNIIDGRLPEVMLPVWFTNNLDVVSSYVQDQSEDCLYLNIYVPTEDVKRISKECARKPGKKICRKGDIRDSGGPKPVMVYIHGGSYMEGTGNLYDGSVLASYGNVIVITVNYRLGVLGFLSTGDQAAKGNYGLLDLIQALRWTSENIGFFGGDPLRITVFGSGAGGSCVNLLTLSHYSEGNRWSNSTKGLFQRAIAQSGTALSSWAVSFQPAKYARILATKVGCNVSDTVELVECLQKKPYKELVDQDVQPARYHIAFGPVIDGDVIPDDPQILMEQGEFLNYDIMLGVNQGEGLKFVENIVDSDDGVSASDFDFAVSNFVDNLYGYPEGKDVLRETIKFMYTDWADRHNPETRRKTLLALFTDHQWVAPAVATADLHSNFGSPTYFYAFYHHCQTDQVPAWADAAHGDEVPYVLGIPMIGPTELFPCNFSKNDVMLSAVVMTYWTNFAKTGDPNQPVPQDTKFIHTKPNRFEEVAWTRYSQKDQLYLHIGLKPRVKEHYRANKVNLWLELVPHLHNLND
The molecule B1 displayed a fold increase in binding after sialidase-II treatment in [7] of 2 to 2.5 fold. Moreover, in [8], the fold increase in binding after combined sialidase II and PNGase F treatment came out at 5 fold. This molecule also returned a fold increase in binding after PNGase F treatment in test [9] of 3 fold. In test [10], the fold binding over NL1-691 is 2.5 fold. The increase of NX1β binding activity after PNGase F digestion in [2] turned out to be 229%.

B2: NL1-691 (soluble rat neuroligin-1 truncated by a stop codon at Tyr-692, N-terminal FLAG) (receptor)
chain: DYKDDDDKLAAANSSIDLQKLDDVDPLVTTNFGKIRGIKKELNNEILGPVIQFLGVPYAAPPTGEHRFQPPEPPSPWSDIRNATQFAPVCPQNIIDGRLPEVMLPVWFTNNLDVVSSYVQDQSEDCLYLNIYVPTEDVKRISKECARKPGKKICRKGDIRDSGGPKPVMVYIHGGSYMEGTGNLYDGSVLASYGNVIVITVNYRLGVLGFLSTGDQAAKGNYGLLDLIQALRWTSENIGFFGGDPLRITVFGSGAGGSCVNLLTLSHYSEGNRWSNSTKGLFQRAIAQSGTALSSWAVSFQPAKYARILATKVGCNVSDTVELVECLQKKPYKELVDQDVQPARYHIAFGPVIDGDVIPDDPQILMEQGEFLNYDIMLGVNQGEGLKFVENIVDSDDGVSASDFDFAVSNFVDNLYGYPEGKDVLRETIKFMYTDWADRHNPETRRKTLLALFTDHQWVAPAVATADLHSNFGSPTYFYAFYHHCQTDQVPAWADAAHGDEVPYVLGIPMIGPTELFPCNFSKNDVMLSAVVMTYWTNFAKTGDPNQPVPQDTKFIHTKPNRFEEVAWTRYSQKDQLYLHIGLKPRVKEHYRANKVNLWLELVPHLHNLNDISQYTSTTTKVPSTDITLRPTRKNSTPVTSAFPTAKQDDPKQQPSPFSVDQRD
B2: in test [7], the fold increase in binding after sialidase-II treatment was in the range of 2 to 2.5 fold. The molecule also returned a fold increase in binding after PNGase F treatment in test [9] of 3 fold. Further, in [11], the fold increase in binding after combined sialidase II and PNGase F treatment was 5 fold.

B3: NL1-651 (soluble rat neuroligin-1 truncated by a stop codon at Thr-652, N-terminal FLAG) (receptor)
chain: DYKDDDDKLAAANSSIDLQKLDDVDPLVTTNFGKIRGIKKELNNEILGPVIQFLGVPYAAPPTGEHRFQPPEPPSPWSDIRNATQFAPVCPQNIIDGRLPEVMLPVWFTNNLDVVSSYVQDQSEDCLYLNIYVPTEDVKRISKECARKPGKKICRKGDIRDSGGPKPVMVYIHGGSYMEGTGNLYDGSVLASYGNVIVITVNYRLGVLGFLSTGDQAAKGNYGLLDLIQALRWTSENIGFFGGDPLRITVFGSGAGGSCVNLLTLSHYSEGNRWSNSTKGLFQRAIAQSGTALSSWAVSFQPAKYARILATKVGCNVSDTVELVECLQKKPYKELVDQDVQPARYHIAFGPVIDGDVIPDDPQILMEQGEFLNYDIMLGVNQGEGLKFVENIVDSDDGVSASDFDFAVSNFVDNLYGYPEGKDVLRETIKFMYTDWADRHNPETRRKTLLALFTDHQWVAPAVATADLHSNFGSPTYFYAFYHHCQTDQVPAWADAAHGDEVPYVLGIPMIGPTELFPCNFSKNDVMLSAVVMTYWTNFAKTGDPNQPVPQDTKFIHTKPNRFEEVAWTRYSQKDQLYLHIGLKPRVKEHYRANKVNLWLELVPHLHNLNDISQYTSTTTKVPS
Regarding B3, the fold binding over NL1-691 in [10] came to 2.5 fold.

Source of the values: patent US20070180544A1.
